The values that follow are results of earlier work, collected in PMC6136702.

In this data set the target is EGFR (Homo sapiens) (UniProt P00533).

Turning to EGF (from UniProt P01133), the Kd – broadly, the free concentration of one partner at which half of the binding sites on the other are occupied at equilibrium, for simple one-to-one binding – was 0.2 nM.
